The text below walks through data of article PMC6110070.

In data set [1] the target is Lys65 (UniProt position 66, AAGANKVAVIK). Particulars: Not stated. Ref 16 concerns affinity labelling of bL12 in situ on E. coli 70S ribosomes with a tRNA dialdehyde derivative.; cited from earlier work.
The target in data set [2] is recombinant E. coli ribosomal protein bL12 (L12), C-terminally His-tagged, as purified: (L7/L12)2 (E. coli) (UniProt P0A7K2). Briefly: SEC; Superdex 75 column, elution followed at 280 nm and 260 nm, column calibrated with protein markers; apparent molecular weight about 50 kDa; oligomer of 13 kDa chains. On the technique in general: Size exclusion chromatography separates by hydrodynamic size, large species first.

The term pKa denotes the negative logarithm of the acid dissociation constant. Take “50S ribosomal protein bL12 (L7/L12) (Escherichia coli)”: in data set [1], the pKa was 7.2. In general, stoichiometry N refers to a count of units in the complex or per binding partner. For the substance “recombinant E. coli ribosomal protein bL12 (L12), C-terminally His-tagged, as purified: (L7/L12)2 (from UniProt P0A7K2 1-121; P0A7K2 1-121) (natural protein)”, the stoichiometry N in data set [2] was 4.
